Blank lines part the entries; values can stand above or below the molecule they belong to.
What was measured:
[1] = target: T1, mitochondrial acetyl-CoA acetyltransferase 1 (ACAT1) (Homo sapiens, UniProt P24752); assay: SPR; assay type: binding
T1 sequence (P24752 34-427): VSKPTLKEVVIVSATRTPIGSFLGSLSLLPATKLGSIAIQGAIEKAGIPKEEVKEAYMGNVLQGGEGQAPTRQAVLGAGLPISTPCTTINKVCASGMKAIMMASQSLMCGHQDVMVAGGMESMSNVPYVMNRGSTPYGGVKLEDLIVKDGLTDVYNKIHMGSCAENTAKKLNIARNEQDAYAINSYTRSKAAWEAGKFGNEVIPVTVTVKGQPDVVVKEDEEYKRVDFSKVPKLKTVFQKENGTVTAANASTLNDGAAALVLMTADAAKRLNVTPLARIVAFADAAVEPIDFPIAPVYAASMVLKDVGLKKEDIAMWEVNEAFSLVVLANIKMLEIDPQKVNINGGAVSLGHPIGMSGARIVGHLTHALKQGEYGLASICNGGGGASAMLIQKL

[2] = target: mitochondrial acetyl-CoA acetyltransferase 1 (ACAT1), purified recombinant human, His-tagged (human) (UniProt P24752); assay: cryo-EM structure
[3] = target: mitochondrial acetyl-CoA acetyltransferase 1 (ACAT1), purified recombinant human, His-tagged (human) (UniProt P24752); assay: negative-stain electron microscopy
[4] = target: mitochondrial acetyl-CoA acetyltransferase 1 (ACAT1), purified recombinant human, His-tagged (human) (UniProt P24752); assay: native gel or EMSA
native gel or EMSA = target: the molecule itself; assay: native gel or EMSA

Kd [1]: ~2580 nM
Molecule: O=C(/C=C/c1ccc(O)c(O)c1)O[C@@H]1C[C@](O)(C(=O)O)C[C@@H](O)[C@H]1O [CGA, Chlorogenic acid]

stoichiometry N [2]: 4
stoichiometry N [3]: 4
stoichiometry N [4]: 4
Molecule: mitochondrial acetyl-CoA acetyltransferase 1 (ACAT1), purified recombinant human, His-tagged (from UniProt P24752 34-427) (enzyme)

B1: ACAT1, endogenous in A375 human melanoma cells (enzyme, human (endogenous in A375), UniProt P24752 34-427, looked up)
chain: VSKPTLKEVVIVSATRTPIGSFLGSLSLLPATKLGSIAIQGAIEKAGIPKEEVKEAYMGNVLQGGEGQAPTRQAVLGAGLPISTPCTTINKVCASGMKAIMMASQSLMCGHQDVMVAGGMESMSNVPYVMNRGSTPYGGVKLEDLIVKDGLTDVYNKIHMGSCAENTAKKLNIARNEQDAYAINSYTRSKAAWEAGKFGNEVIPVTVTVKGQPDVVVKEDEEYKRVDFSKVPKLKTVFQKENGTVTAANASTLNDGAAALVLMTADAAKRLNVTPLARIVAFADAAVEPIDFPIAPVYAASMVLKDVGLKKEDIAMWEVNEAFSLVVLANIKMLEIDPQKVNINGGAVSLGHPIGMSGARIVGHLTHALKQGEYGLASICNGGGGASAMLIQKL
stoichiometry N (native gel or EMSA): 4
